Assay in all cases: BLI; Octet RED96; client biotinylated and loaded on streptavidin sensors; Spy or Spy variant in solution at 0.25, 0.5, 1, 1.5 and 2 μM; 40 mM HEPES, 150 mM NaCl, pH 7.5; Kd calculated as koff/kon
Holding throughout (conditions): both partners purified

One assay concerns the target T1, Spy_(29-124) (UniProt P77754 52-147).
T1 construct: also called termini-free Spy; source: E. coli BL21 (DE3), purified (Ni-NTA, cation exchange, SEC); not shown: His6, N-terminal, cleaved; SUMO, N-terminal, cleaved
T1 sequence (looked up): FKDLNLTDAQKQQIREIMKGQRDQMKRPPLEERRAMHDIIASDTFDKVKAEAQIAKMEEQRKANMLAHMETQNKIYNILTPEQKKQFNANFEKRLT
The procedure, abridged: (§1)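 Association was recorded with an Octet RED96 as streptavidin sensors carrying client proteins, biotinylated with EZ-link NHS-biotin at a 1:1 molar ratio, sat in 40 mM HEPES, 150 mM NaCl, pH 7.5 with 0.25 to 2 μM of the analyte protein (0.25, 0.5, 1, 1.5 and 2 μM). Dissociation followed after transfer to analyte-free buffer. Both wavelength-shift phases were fitted in SigmaPlot 12.0 to obtain koff and the observed association rate, whose dependence on analyte concentration yielded kon, with Kd defined as koff divided by kon.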

Another assay has as its target T2, Spy_(27-127) (UniProt P77754 50-150).
T2 construct: Spy chaperone, residues 27-127; source: E. coli BL21 (DE3), purified (Ni-NTA, cation exchange, SEC); not shown: His6, N-terminal, cleaved; SUMO, N-terminal, cleaved
T2 sequence (looked up): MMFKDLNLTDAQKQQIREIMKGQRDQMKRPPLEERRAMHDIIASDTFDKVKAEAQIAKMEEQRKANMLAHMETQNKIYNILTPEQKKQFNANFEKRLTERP
The procedure, abridged: as §1

A further assay deals with T3, Spy_(21-127) (UniProt P77754 44-150).
T3 construct: Spy chaperone, residues 21-127; source: E. coli BL21 (DE3), purified (Ni-NTA, cation exchange, SEC); not shown: His6, N-terminal, cleaved; SUMO, N-terminal, cleaved
T3 sequence (looked up): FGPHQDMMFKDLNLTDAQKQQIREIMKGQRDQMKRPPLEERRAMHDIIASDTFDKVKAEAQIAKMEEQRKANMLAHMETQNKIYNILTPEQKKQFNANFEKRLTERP
The method, boiled down:
as §1

In the next assay the target is T4, Spy_(29-130) (UniProt P77754 52-153).
T4 construct: Spy chaperone, residues 29-130; source: E. coli BL21 (DE3), purified (Ni-NTA, cation exchange, SEC); not shown: His6, N-terminal, cleaved; SUMO, N-terminal, cleaved
T4 sequence (looked up): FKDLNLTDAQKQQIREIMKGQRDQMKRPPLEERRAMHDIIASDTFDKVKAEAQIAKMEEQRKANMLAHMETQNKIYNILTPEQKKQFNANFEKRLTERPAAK
The procedure, abridged:
as §1

A further assay deals with T5, Spy_(21-130) (UniProt P77754 44-153).
T5 construct: Spy chaperone, residues 21-130; source: E. coli BL21 (DE3), purified (Ni-NTA, cation exchange, SEC); not shown: His6, N-terminal, cleaved; SUMO, N-terminal, cleaved
T5 sequence (looked up): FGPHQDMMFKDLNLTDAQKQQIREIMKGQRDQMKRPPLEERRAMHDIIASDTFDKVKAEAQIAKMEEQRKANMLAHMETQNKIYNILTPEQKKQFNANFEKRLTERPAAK
The method, boiled down:
as §1

Assay [1] addresses T6, Spy wild type (Spy_(1-138)) (UniProt P77754 24-161).
T6 construct: Spy, ATP-independent periplasmic chaperone; also called WT; wt; source: E. coli BL21 (DE3), purified (Ni-NTA, cation exchange, SEC); not shown: His6, N-terminal, cleaved; SUMO, N-terminal, cleaved
T6 sequence (looked up): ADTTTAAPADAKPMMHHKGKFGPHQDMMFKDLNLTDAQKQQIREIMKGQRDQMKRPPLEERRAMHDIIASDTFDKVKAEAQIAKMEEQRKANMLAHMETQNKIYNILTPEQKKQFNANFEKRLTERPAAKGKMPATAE
The procedure, abridged:
as §1

The next assay deals with T7, Spy_(29-127) (UniProt P77754 52-150).
T7 construct: Spy chaperone, residues 29-127; source: E. coli BL21 (DE3), purified (Ni-NTA, cation exchange, SEC); not shown: His6, N-terminal, cleaved; SUMO, N-terminal, cleaved
T7 sequence (looked up): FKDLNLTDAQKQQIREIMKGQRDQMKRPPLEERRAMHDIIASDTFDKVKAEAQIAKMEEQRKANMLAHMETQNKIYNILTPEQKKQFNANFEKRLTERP
The method, boiled down: as §1

B1: Im7 H40W L53A I54A (natural protein)
chain: MELKNSISDYTEAEFVQLLKEIEKENVAATDDVLDVLLEWFVKITEHPDGTDAAYYPSDNRDDSPEGIVKEIKEWRAANGKPGFKQG
modifications: biotin (EZ-link NHS-biotin, 1:1 molar ratio of biotin to protein)
notes: Im7 (colicin E7 immunity protein) with H40W L53A I54A; Spy was made with an N-terminal His6-SUMO tag that was cleaved; also called Im7AAW; partially folded client; source: purified by a similar procedure to Spy
As to B1, the kon – broadly, the rate constant with which the complex forms – is 273000 M⁻¹ s⁻¹ in the assay with Spy_(29-124); 312000 M⁻¹ s⁻¹ with Spy_(27-127); 258000 M⁻¹ s⁻¹ with Spy_(21-127); 283000 M⁻¹ s⁻¹ with Spy_(29-130); 187000 M⁻¹ s⁻¹ with Spy_(21-130); 276000 M⁻¹ s⁻¹ in assay [1]. In the assay with Spy_(29-127), the kon is 309000 M⁻¹ s⁻¹.

The record behind these values is article PMC9122904, “Insights into the client protein release mechanism of the ATP-independent chaperone Spy” (Nature Communications, 2022).
